Measurements: the supplement of paper PMC12042874
± gives the uncertainty stated by the source.

Assay: amyloid nucleation score (Sup35N fusion, yeast selection) (log enrichment); library NNK3; higher = more nucleation; inactive = no reads after selection
In short: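 Nucleation score: DiMSum log enrichment of output over input reads, centred on the mode score of non-aggregating sequences. Only sequences with at least 100 input reads were kept. Reads came from Illumina sequencing of plasmid inserts before and after 7 days of growth at 30°C without adenine and uracil, in psi-negative yeast expressing Sup35N fused to peptides of 20 random codons after 24 hours of induction with 100 μM copper sulfate.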

Row | Substance | amyloid nucleation score
1 | TLNGCR | inactive
2 | GVDSARQRSDHVNRERSSGC | inactive
3 | AVVVIQRYLAVHCWVFGERI | -0.57 ± 0.93
4 | VYACWIMSNVPSRAVEILYS | inactive
5 | IQDLEASRFGSIVIALDNCS | inactive
6 | RGGRYDFMCDTCSLIVFASV | -0.645 ± 1.1
7 | GSEQSVEDGFAWMKDTYFCL | inactive
8 | RSMKLPAKTASLLH | inactive
9 | MRTMLVFVRGFKFFLPDLLI | inactive
10 | YVGFVARVVRDYNGYQRDTC | inactive
11 | KHYDLGFQYFSR | inactive
12 | YAFLLYY | inactive
13 | TVLITIIFTSRGVAVRKS | -1.19 ± 1.9
14 | YISCMCANIRNIFVISIH | 1.81 ± 0.08
15 | ALSVFRGLCVLENFSKISGC | inactive
16 | FTNFDNFSFYASWLCG | inactive
17 | LLVFSTGHARRFFSSYESRG | 1.28 ± 0.09
18 | VKMSWHHHCLFLICLCTSYE | 0.606 ± 0.13
19 | WYVYKFCEPVGDRGRFVWCL | -0.212 ± 0.84
20 | YLMSYGRWDRWKWWYFYRLW | inactive
21 | SSMSRVCEIKVLYNMSGVYT | inactive
22 | IPCLQVYFTSTPNPSWSHGH | inactive
23 | NWMGTGGYDMDDFFE | inactive
24 | DIIVKQLPKRYGPTMSIRNM | -0.057 ± 0.58
25 | CSGGGGKRGLLSTLTEPMRR | inactive
26 | TVPVVREVLRLRVLRIFGVG | inactive

Row | Substance | amyloid nucleation score
27 | DPHCQGFVWGSCMDVWYLSL | 2.7 ± 0.062
28 | LWSWDDIHPFCLILLLTRCP | inactive
29 | QSSKDTWRCASDKYERSGKR | inactive
30 | RALLTGWTMSRPGLFIIATS | -0.273 ± 1.1
31 | GWVLILKMGYFRSLWNITVL | inactive
32 | LCIWNWFLSSNRMLRKLAD | inactive
33 | NGKVLM | inactive
34 | LGVEVSMMTWCRMSSSMLMT | inactive
35 | FHFFYYTLFNCHHGLFTSFF | inactive
36 | HLCWNRQGNDRRELKSRWRK | inactive
37 | FNSYKGNVSFAGW | -0.155 ± 1.4
38 | IRRQYIYHSNEYRMMHYSES | 0.179 ± 0.85
39 | CCRSWRSYSTVVFICGFLYW | inactive
40 | ENWTDGM | inactive
41 | DATRSCLWMYAIVYNACIGH | inactive
42 | WSFVPRGIVVSRRLSVYTRT | inactive
43 | YFCSFREVRSHGQTLR | inactive
44 | LWLFIAY | inactive
45 | YQNIDYMKGYKVISKD | inactive
46 | KIQRYNILSGTCVFI | 1.51 ± 0.089
47 | ILYNFEDVLWAGSLRIGLNL | inactive
48 | RTLLGEEWLCSVEMEVVGGQ | inactive
49 | FVKSVRYSL | 1.45 ± 0.064
50 | RIYGHVLSRDANFVRLWVGT | inactive
51 | SCECSSNMGEAFRKLVGTSA | inactive
52 | IMSVRIGSLGVMSHWSLYSY | inactive

Row | Substance | amyloid nucleation score
53 | RCIGALRTRPSTEGRTSLRI | inactive
54 | DLSIRKFHGGSMDSLNMEYM | inactive
55 | GAIRLRSVNSNLGWLTAPLR | inactive
56 | MSSSSAFD | inactive
57 | LEYKYVGLSKFDALIRQWFL | inactive
58 | TSKLVCPNGVMHLRDDRVGC | inactive
59 | LSLYPFMWKYIIGAGKWLFL | inactive
60 | ASVACLAFP | inactive
61 | RAFFDTSCGMSLDPSLIPTG | inactive
62 | YSSLLWCKIES | inactive
63 | DNRSL | -0.501 ± 0.66
64 | FAVTLNSWRARFRFMDRNDM | 0.682 ± 0.26
65 | YNFWMRQVVMRVTVCGNDEA | inactive
66 | FTWYRR | inactive
67 | DHKFGNMLAFESRLVLYQIK | inactive
68 | LAVFKFDRSLIWDTTVRVFH | inactive
69 | EYSLMVNSTIDYFGDSNICE | inactive
70 | IMYPIRSSGLEPLNMCGYQA | inactive
71 | MVIAPGEKTNNLSSAHRWSN | inactive
72 | TQLFGGFPTEGQMMYPPRSS | inactive
73 | VLRIFISWCSVQLSKRLWWT | inactive
74 | AVTCVDSWMRDTG | inactive
75 | SSLVSCYRIFNRSGADLGLT | inactive
76 | MRVKGLIRWWETGCEKKSTA | inactive
77 | IIVRSTDGLSCRSDSIYECD | inactive
78 | SEAMFSIVLKECNGGACR | inactive
